In article PMC5421877, “SOCS3 inhibits the pathological effects of IL-22 in non-melanoma skin tumor-derived keratinocytes” (Oncotarget, 2017) one finds MEK1/2 activation and phospho-STAT3 levels data, which are given here for 1 molecule.

In one experiment the test system is MEK phosphorylation. Nature of the experiment: Western blot of MEK phosphorylation in healthy keratinocytes (IL-22). In kind it is cell-based, human. The note with it: IL-22 time course, no peptide, n = 3. The protocol:
Figure 5 KIR-ESS peptide inhibits IL-22-induced phosphorylation of STAT3 and Erk in healthy and SCC-derived keratinocytes (A) Protein extracts obtained from healthy keratinocytes (n = 3) pre-treated or not with 15 μM (left panel) or 75 μM (right panel), KIR, KIR-ESS and control (Ctrl1 or Ctrl2) peptides, and, then, […], were subjected to WB analysis to detect STAT3 (Tyr705), Erk and MEK phosphorylation. Filters were probed with anti-STAT3, -Erk and –MEK Abs (top). (B) Protein extracts obtained from healthy keratinocytes (n = 3) pre-treated or not with 75 μM KIR-ESS and control (Ctrl1) peptides, and, then, stimulated or not with IL-22 for 10 min, were subjected to immunoprecipitation for IL-22R1 and Jak1, and then analysed by WB to detect phosphorylated and unphosphorylated forms of the proteins. (C) Unphosphorylated and phosphorylated forms of STAT1 (Tyr701) and STAT3 (Tyr705) were monitored in keratinocytes treated with IFN-γ for 15 min by WB analysis (bottom). In all experimental groups, filters were stripped and re-probed with β-actin Ab. (D) Protein extracts were obtained from CAL27 (left panel) or CAL33 (right panel) lines treated or not with 75 μM peptides in presence of IL-22 or IFN-γ. WB was performed to detect basal and phosphorylated STAT1, STAT3 and Erk. D.I. ratio indicates the densitometric intensity of phosphorylated/unphosphorylated target protein. […]
For orientation: Immunoblotting shows a protein as a band on a membrane.

Experiment [1] relates to STAT3 phosphorylation in BCC and SCC lines. Nature of the experiment: phospho-STAT3 levels in transformed keratinocyte lines (IL-22). The note with it: BCC (n = 2) and SCC (n = 5) lines vs healthy strains (n = 5), IL-22 time course. In kind it is cell-based. The protocol:
Figure 4 SOCS3 and SOCS1 are poorly expressed in the epidermis of NMSC lesions and are not induced in transformed keratinocytes by IL-22 (A) Immunohistochemistry for SOCS3 and SOCS1 (red staining) was performed respectively on frozen or paraffin-embedded sections from biopsies of healthy skin (i), NLS (ii, iii) and LS (iv, v) areas of BCC and SCC, specimens. Psoriatic skin biopsies were also analyzed (vi). Sections were counterstained with Mayer's H&E and were visually evaluated by an pathologist experienced in dermatology. One out of four representative staining is shown. Scale bars, […]. (B) Graphs show SOCS3 and SOCS1 mRNA levels which were detected by real-time PCR analysis in cultured SCC (CAL27 and CAL33) and BCC (M77015) skin tumor lines left untreated or stimulated with IL-22 or IFN-γ for 3 h and normalized for β-actin mRNA expression levels. All data were obtained from three independent experiments. […] SOCS1 was detected by IP using a specific anti-SOCS1 Ab, whereas SOCS3 by WB with an anti-SOCS3 Ab. […] Densitometric intensity (D.I.) of SOCS1 or SOCS3/β-actin was calculated from three independent experiments and numerically expressed as D. I. Ratio. *p < 0.01; **p < 0.05. […] SOCS3 and phospho-Tyr STAT3 levels were detected by WB and normalized to β-actin levels. […]

B1: IL-22: cytokine stimulus, R&D Systems (protein, UniProt Q9GZX6 34-179, looked up)
Interleukin-22: APISSHCRLDKSNFQQPYITNRTFMLAKEASLADNNTDVRLIGEKLFHGVSMSERCYLMKQVLNFTLEEVLFPQSDRFQPYMQEVVPFLARLSNRLSTCHIEGDDLHIQRNVQKLKDTVKKLGESGEIKAIGELDLLFMSLRNACI
For B1, the MEK1/2 activation result with MEK phosphorylation is “culminated with STAT3, MEK1/2 and Erk1/2 activation”. The phospho-STAT3 levels entry in experiment [1] was “higher compared to healthy cells, and showed a long-lasting activation”.
